Results on 9 molecules are retold here after patent US20210292393A1 (published 2021).

Assay [1] addresses SARS-CoV-2 full length spike protein (wild type) (SARS-CoV-2, UniProt P0DTC2 14-1208).
For assay [2], the target named is full-length trimeric SARS-CoV spike protein (SARS-CoV, UniProt P59594 14-1190).

B1: antibody 264 (antibody, V domains shown)
VH: QVHLVESGGGVVQPGRSLRLSCAASGFTLTSYAMHWVRQAPGKGLEWVALISYDGSVKKYAESVKGRITVSGDNSRNTLHLQINTLRADDTAVYYCVRGGVSGPNSFDLWGQGTMVTVSS
VL: DVVMTQSPLSLPVTLGQPASISCRSSQSLEYSDGNTYVNWFQQRPGQSPRRLIYQVSNRASGVPDRFSGSGSGTDFTLQISRVEAEDVGIYYCMQGTHWPVTFGQGTKVEIK
On to B1, for which, in assay [1], the “binding signal, bead assay (fold over isotype)” value came out at 598.

B2: antibody 265 (antibody, V domains shown)
VH: EVQLVQSGAEVKKPGATVKVSCKFSGDTFSHYYIHWVQQAPGKGLEWMGLVDPQDGESEYAQKFQGKVTITADTSIDTSYLEVTSLRFDDTAFYFCATRGMSGAFDRWGQGTLVTVSS
VL: DIVMTQSPDSLAVSLGERATINCKSSQSILSTSNNKNYLAWYQQKPGQPPKLLIYWASTRESGVPDRFSGGGSGTDFTLTISSLQAEDVAVYYCQQYYRTAYTTPIYTFGQGTKLEIK
Regarding B2, in assay [1], the “binding signal, bead assay (fold over isotype)” value was 1280.

B3: antibody 276 (antibody, V domains shown)
VH: QVQLQESGPGLVKPSQTLSLTCTVSGDSISSGGYYWSWIRQHPGKGLEWIGYIYYSGSAYYNPSLKSRVTISLDTSKNQFSLKLSSVTAADTAVYYCARDSVAGFSIFDYWGQGTLVTVSS
VL: SSELTQDPAVSVALGQTVRITCQGDSLRSYYASWYQQKPGQAPVRVIYGKNNRPSGIPDRFSGSSSGNTASLTITGAQAEDEADYYCNSWDSSGNHVVFGGGTKLTVL
For the molecule B3, in assay [1], the “binding signal, bead assay (fold over isotype)” value turned out to be 748.

B4: antibody 263 (antibody, V domains shown)
VH: EVQLVQSGAEVKKPGATVKISCKVSGYTFTDYYMHWVQQAPGKGLEWMGLVDPEDGETIYAEKFQGRVTITADTSTDTAYMELSSLRSDDTAVYYCTTDLAFTIFGGRRGFDPWGQGTLVTVSS
VL: DIQLTQSPSFLSASVGDRVTITCRASQGISSYLAWYQQKPGKAPKLLIYAASTLQSGVPSRFSGSGSGTEFTLTISSLQPEDFATYYCQQLNSYDFGQGTRLEIK
In the case of B4, the “median fluorescence intensity, fold over isotype control” value (“median fluorescence intensity, fold” for short) in assay [2] is 1.13 fold over isotype.

B5: antibody 263 (antibody, V domains shown)
VH: B4 VH
VL: B4 VL
On to B5, for which the “binding signal, bead assay (fold over isotype)” value in assay [1] is 722.

B6: antibody 273 (antibody, V domains shown)
VH: QVQLVQSGAEVKKPGASVKVSCKVSGYTLTELSMHWVRQAPGKGLEWMGGFDPEDGETIYAQKFQGRVTMTEDTSTDTAYMELSSLRSEDTAVYYCATAPGYYDSSAPQPINWFDPWGQGTLVTVSS
VL: QSALTQPASVSGSPGQSITISCTGTSSDVGSYNLVSWYQQHPGKAPKLMIYEVSKRPSGVSNRFSGSKSGNTASLTISGLQAEDEADYYCCSYAGSSTLVFGGGTKLTVL
As to B6, the “binding signal, bead assay (fold over isotype)” value in assay [1] came out at 924.

B7: antibody 260 (antibody, V domains shown)
VH: EVQLVESGGGLVQPGRSLRLSCAASGFTFDYYAMHWVRQAPGKGLEWVSGISWNSGTIGYADSVKGRFTISRDNAKNSLYLQMNSLRAEDTALYYCAKDSRPSGRYYYGMDVWGQGTTVTVSS
VL: not shown
Turning to B7, the “median fluorescence intensity, fold” value in assay [2] came to 108 fold over isotype.

B8: antibody 259 (antibody, V domains shown)
VH: EVQLVQSGAEVKKPGATVKISCKVSGYTFTDYYMHWVQQAPGKGLEWMGLVDPEDGETIYAEKFQGRVTITADTSTDTAYMELSSLRSEDTAVYYCATDLLSWKLYCSGGSCPQMDVWGQGTTVTVSS
VL: DIQMTQSPSSLSASVGDRVTITCRASQGIRNDLGWYQQKPGKAPKRLIYAASSLQSGVPSRFSGSGSGTEFTLTISSLQPEDFATYYCLQHNSYPQTFGQGTKLEIK
In the case of B8, the “median fluorescence intensity, fold” value in assay [2] worked out at 1.03 fold over isotype.

B9: antibody 281 (antibody, V domains shown)
VH: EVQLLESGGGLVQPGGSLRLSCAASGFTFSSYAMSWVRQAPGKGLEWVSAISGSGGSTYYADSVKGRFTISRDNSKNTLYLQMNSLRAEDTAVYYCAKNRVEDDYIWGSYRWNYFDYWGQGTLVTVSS
VL: QSALTQPASVSGSPGQSITISCTGTSSDVGSYNLVSWYQQHPGKAPKLMIYEVSKRPSGVSNRFSGSKSGNTASLTISGLQAEDEADYYCCSYAGSSTHVVFGGGTKLTVL
B9: the “binding signal, bead assay (fold over isotype)” value in assay [1] worked out at 570.
